The target of series [1] is T1, integrin α4 overexpressed in HEK 293T cells (UniProt P13612 34-1032, limits assumed).
T1 construct: Tested in cell lysates; also called α4 integrin; pITGA4
T1 sequence (looked up): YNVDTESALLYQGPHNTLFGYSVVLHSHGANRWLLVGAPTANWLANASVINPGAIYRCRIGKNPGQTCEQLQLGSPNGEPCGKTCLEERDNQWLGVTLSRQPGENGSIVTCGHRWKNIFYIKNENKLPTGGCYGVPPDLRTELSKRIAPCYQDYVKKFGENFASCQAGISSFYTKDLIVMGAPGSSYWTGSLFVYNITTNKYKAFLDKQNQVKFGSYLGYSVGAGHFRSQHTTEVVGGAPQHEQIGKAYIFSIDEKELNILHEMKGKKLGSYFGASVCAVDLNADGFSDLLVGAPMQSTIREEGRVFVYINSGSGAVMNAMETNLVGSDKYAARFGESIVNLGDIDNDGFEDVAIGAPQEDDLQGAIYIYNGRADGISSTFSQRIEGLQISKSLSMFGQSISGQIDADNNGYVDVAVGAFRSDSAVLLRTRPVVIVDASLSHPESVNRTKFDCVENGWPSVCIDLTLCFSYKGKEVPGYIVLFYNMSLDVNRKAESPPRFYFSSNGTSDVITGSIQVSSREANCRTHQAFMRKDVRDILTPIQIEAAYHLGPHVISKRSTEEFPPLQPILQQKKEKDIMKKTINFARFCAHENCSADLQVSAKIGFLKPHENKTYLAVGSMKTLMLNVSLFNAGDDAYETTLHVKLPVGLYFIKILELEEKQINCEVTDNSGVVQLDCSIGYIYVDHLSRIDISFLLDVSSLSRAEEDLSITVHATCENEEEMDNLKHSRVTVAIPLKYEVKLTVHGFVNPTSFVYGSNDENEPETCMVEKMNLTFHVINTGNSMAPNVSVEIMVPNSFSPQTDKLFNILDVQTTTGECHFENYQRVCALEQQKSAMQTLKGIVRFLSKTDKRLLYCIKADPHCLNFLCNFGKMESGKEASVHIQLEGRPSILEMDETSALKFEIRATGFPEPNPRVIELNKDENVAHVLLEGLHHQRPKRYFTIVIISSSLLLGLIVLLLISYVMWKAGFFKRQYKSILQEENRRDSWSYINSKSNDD
Nature of the series: co-immunoprecipitation from HEK 293T cells overexpressing the proteins. The method, then: Cells (approximately 2×10⁶) were washed one time with PBS and incubated in IP buffer (50 mM Tris-HCl [pH 7.4], 150 mM NaCl, 2 mM EDTA, 1 mM dithiothreitol, 1% Nonidet P-40 [NP-40]; or 10 mM imidazole, 100 mM NaCl, 1 mM MgCl₂, 5 mM EDTA, 1% Triton X-100, pH 7.4) containing 1× cOmplete protease inhibitor cocktail (Roche) for 10 min on ice. Cells were scraped from the plate and rotated at 4° C. for 10 min. Lysates were cleared by centrifugation at 20,000×g at 4° C. for 10 min. An equal amount of protein was added to total 500 microliters of IP buffer plus protease inhibitors (Roche). Antibodies (2 micrograms α-HA (Covance), α-myc (Covance), α-p120 (BD Transduction Laboratories), α-ITGA4 (Cell Signaling Technology, Inc.), mouse IgG1 control (AbD Serotec), or normal rabbit IgG control (R & D Systems)) were added and rotated overnight at 4° C. Subsequently, 20 microliters of protein A/G agarose beads (Santa Cruz Biotechnology, Inc.) were added per sample. After 2 h of rotation (4° C.), beads were washed 5 times in IP buffer containing protease inhibitors. 2× Laemmli buffer was added to the immunoprecipitates or total cell lysates saved prior to IP (input).

Series [2] deals with the molecule itself. Nature of the series: cell-based or functional assay.

B1: CDH1 (E-cadherin) overexpressed in HEK 293T cells (receptor, UniProt P12830 155-882, looked up)
chain: DWVIPPISCPENEKGPFPKNLVQIKSNKDKEGKVFYSITGQGADTPPVGVFIIERETGWLKVTEPLDRERIATYTLFSHAVSSNGNAVEDPMEILITVTDQNDNKPEFTQEVFKGSVMEGALPGTSVMEVTATDADDDVNTYNAAIAYTILSQDPELPDKNMFTINRNTGVISVVTTGLDRESFPTYTLVVQAADLQGEGLSTTATAVITVTDTNDNPPIFNPTTYKGQVPENEANVVITTLKVTDADAPNTPAWEAVYTILNDDGGQFVVTTNPVNNDGILKTAKGLDFEAKQQYILHVAVTNVVPFEVSLTTSTATVTVDVLDVNEAPIFVPPEKRVEVSEDFGVGQEITSYTAQEPDTFMEQKITYRIWRDTANWLEINPDTGAISTRAELDREDFEHVKNSTYTALIIATDNGSPVATGTGTLLLILSDVNDNAPIPEPRTIFFCERNPKPQVINIIDADLPPNTSPFTAELTHGASANWTIQYNDPTQESIILKPKMALEVGDYKINLKLMDNQNKDQVTTLEVSVCDCEGAAGVCRKAQPVEAGLQIPAILGILGGILALLILILLLLLFLRRRAVVKEPLLPPEDDTRDNVYYYDEEGGGEEDQDFDLSQLHRGLDARPEVTRNDVAPTLMSVPRYLPRPANPDEIGNFIDENLKAADTDPTAPPYDSLLVFDYEGSGSEAASLSSLNSSESDKDQDYDYLNEWGNRFKKLADMYGGGEDD
notes: Tested in cell lysates; also called pCDH1
Turning to B1, in series [1], the binding result was “no binding”.

B2: human CDH26 (cadherin 26) expressed on transduced cells (receptor)
chain: DSVQQETDDLTKQTKEKIYQPLRRSKRRWVITTLELEEEDPGPFPKLIGELFNNMSYNMSLMYLISGPGVDEYPEIGLFSLEDHENGRIYVHRPVDREMTPSFTVYFDVVERSTGKIVDTSLIFNIRISDVNDHAPQFPEKEFNITVQENQSAGQPIFQMLAVDLDEENTPNSQVLYFLISQTPLLKESGFRVDRLSGEIRLSGCLDYETAPQFTLLIRARDCGEPSLSSTTTVHVDVQEGNNHRPAFTQENYKVQIPEGRASQGVLRLLVQDRDSPFTSAWRAKFNILHGNEEGHFDISTDPETNEGILNVIKPLDYETRPAQSLIIVVENEERLVFCERGKLQPPRKAAASATVSVQVTDANDPPAFHPQSFIVNKEEGARPGTLLGTFNAMDPDSQIRYELVHDPANWVSVDKNSGVVITVEPIDRESPHVNNSFYVIIIHAVDDGFPPQTATGTLMLFLSDINDNVPTLRPRSRYMEVCESAVHEPLHIEAEDPDLEPFSDPFTFELDNTWGNAEDTWKLGRNWGQSVELLTLRSLPRGNYLVPLFIGDKQGLSQKQTVHVRICPCASGLTCVELADAEVGLHVGALFPVCAAFVALAVALLFLLRCYFVLEPKRHGCSVSNDEGHQTLVMYNAESKGTSAQTWSDVEGQRPALLICTAAAGPTQGVKDLEEVPPSAASQSAQARCALGSWGYGKPFEPRSVKNIHSTPAYPDATMHRQLLAPVEGRMAETLNQKLHVANVLEDDPGYLPHVYSEEGECGGAPSLSSLASLEQELQPDLLDSLGSKATPFEEIYSESGVPS
Turning to B2, the “phosphorylation of ERK upon calcium restoration” value in series [2] stood at 11.6 fold.

Values taken from patent publication US20180148492A1 (CHILDREN S HOSPITAL MEDICAL CENTER, published 2018).
